Assay results taken from patent publication US20240360229A1.

Target: human CCR8 (human) (UniProt P51685)
Assay: cell-based or functional assay

Chain of human CCR8 (human) (P51685 whole entry): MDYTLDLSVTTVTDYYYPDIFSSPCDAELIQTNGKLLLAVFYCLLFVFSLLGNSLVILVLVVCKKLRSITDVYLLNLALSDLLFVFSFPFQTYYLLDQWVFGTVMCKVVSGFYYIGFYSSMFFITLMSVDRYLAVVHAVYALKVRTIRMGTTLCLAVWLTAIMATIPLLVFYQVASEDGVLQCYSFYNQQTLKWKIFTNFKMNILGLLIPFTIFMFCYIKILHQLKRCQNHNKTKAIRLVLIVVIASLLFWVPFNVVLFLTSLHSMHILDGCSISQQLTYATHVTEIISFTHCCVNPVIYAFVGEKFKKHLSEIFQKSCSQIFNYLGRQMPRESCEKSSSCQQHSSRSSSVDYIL

IC50 of inhibition of CCL1-mediated activation of CCR8 (Ca2+ influx, FLIPR, CHO/hCCR8.Gna15 cells): 8.4 nM
B1: control antibody (BD, Cat. #433H) (antibody, from another filing, V domains shown)
VH: EVQLVETGGGLVQPKGSLRLSCAASGFPFNTFAMNWVRQAPGKGLEWLARIRSKSNNYATYYADSVKDRFTISRDDSRRMLYLLMNNVKFEDTAIYYCVRGKENNYGYAMDYWGQGTSVTVSS
VL: DIVMTQAAPSVPVTPGESVSISCRSSQSLLHSNGNTYLYWFLQRPGQSPQLLIYRMSNLASGVPDRFSGSGSGTAFTLRISRVEAEDVGVYYCMQHLEYPFTFGIGTKLELKR
